This note sets out measurements from publication doi:10.1101/2022.02.09.479832v2 (biorxiv, 2022).

Like-named read-outs stand apart in the source and are kept apart here.

Data set [1] addresses T1, PmIleRS1 (Priestia megaterium, UniProt A0A0B6A6A8).
T1 sequence (A0A0B6A6A8 1-921): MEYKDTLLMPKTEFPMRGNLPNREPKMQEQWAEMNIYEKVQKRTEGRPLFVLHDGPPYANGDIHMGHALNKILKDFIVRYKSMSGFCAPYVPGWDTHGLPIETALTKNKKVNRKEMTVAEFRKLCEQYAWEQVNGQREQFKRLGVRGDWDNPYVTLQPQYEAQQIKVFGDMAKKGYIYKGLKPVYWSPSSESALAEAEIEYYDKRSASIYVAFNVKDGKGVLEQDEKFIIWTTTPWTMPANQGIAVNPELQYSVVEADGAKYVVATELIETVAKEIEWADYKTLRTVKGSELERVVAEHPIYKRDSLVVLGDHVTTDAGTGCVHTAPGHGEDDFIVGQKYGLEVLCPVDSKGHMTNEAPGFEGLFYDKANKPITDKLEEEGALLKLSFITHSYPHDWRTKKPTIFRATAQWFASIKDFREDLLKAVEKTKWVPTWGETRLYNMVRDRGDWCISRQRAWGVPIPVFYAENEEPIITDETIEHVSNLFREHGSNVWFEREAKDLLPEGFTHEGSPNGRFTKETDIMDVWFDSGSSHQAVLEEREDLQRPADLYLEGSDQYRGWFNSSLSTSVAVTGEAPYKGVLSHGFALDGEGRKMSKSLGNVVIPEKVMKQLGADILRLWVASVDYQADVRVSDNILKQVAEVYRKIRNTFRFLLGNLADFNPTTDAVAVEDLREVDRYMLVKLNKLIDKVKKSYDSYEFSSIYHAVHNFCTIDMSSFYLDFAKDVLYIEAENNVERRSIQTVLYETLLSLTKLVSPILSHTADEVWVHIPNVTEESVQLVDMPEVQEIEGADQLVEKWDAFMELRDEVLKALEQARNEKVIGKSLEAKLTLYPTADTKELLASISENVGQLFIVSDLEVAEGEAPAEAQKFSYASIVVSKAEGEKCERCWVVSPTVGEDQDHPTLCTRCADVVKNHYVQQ
As to the kind of experiment: time courses fitted to slow-binding equation, Ki = koff/kon. Type of data set: biochemical. The settings on record: competitive, tight binding, 30 °C.

Data set [2] concerns the target T2, PmIleRS2 (Priestia megaterium, UniProt A0A0B6AVD3).
T2 sequence (A0A0B6AVD3 1-1032): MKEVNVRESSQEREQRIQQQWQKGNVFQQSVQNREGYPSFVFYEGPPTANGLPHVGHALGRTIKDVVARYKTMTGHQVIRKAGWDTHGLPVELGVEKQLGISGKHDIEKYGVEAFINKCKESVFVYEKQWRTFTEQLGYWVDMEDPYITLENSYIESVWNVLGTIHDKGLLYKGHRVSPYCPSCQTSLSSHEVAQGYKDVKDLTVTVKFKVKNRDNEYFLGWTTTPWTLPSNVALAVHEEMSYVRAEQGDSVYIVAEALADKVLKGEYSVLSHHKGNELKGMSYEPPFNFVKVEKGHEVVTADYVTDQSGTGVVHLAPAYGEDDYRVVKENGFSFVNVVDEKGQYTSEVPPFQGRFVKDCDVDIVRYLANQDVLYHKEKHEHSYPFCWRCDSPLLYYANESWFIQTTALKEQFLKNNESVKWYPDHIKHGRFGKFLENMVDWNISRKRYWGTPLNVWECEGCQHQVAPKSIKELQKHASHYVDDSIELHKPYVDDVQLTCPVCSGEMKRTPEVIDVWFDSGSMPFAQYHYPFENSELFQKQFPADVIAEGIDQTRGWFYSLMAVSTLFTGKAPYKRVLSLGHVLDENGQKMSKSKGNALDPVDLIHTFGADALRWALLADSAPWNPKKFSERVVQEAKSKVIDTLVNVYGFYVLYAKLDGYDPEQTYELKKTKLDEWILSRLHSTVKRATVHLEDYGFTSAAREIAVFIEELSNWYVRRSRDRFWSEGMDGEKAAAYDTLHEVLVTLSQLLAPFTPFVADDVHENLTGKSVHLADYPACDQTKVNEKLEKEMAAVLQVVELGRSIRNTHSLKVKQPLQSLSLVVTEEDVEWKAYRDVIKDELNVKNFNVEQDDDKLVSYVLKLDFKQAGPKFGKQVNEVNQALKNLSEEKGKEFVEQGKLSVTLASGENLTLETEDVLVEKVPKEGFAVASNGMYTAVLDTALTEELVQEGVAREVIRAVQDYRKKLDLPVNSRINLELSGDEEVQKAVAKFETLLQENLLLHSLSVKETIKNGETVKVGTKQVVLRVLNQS
As to the kind of experiment: biochemical.

Data set [3] deals with T2, PmIleRS2. As to the kind of experiment: biochemical. This is another data set of the same source.
The target of data set [4] is T1, PmIleRS1. As to the kind of experiment: biochemical. The settings on record: read-out: kon.
Data set [5] deals with T1, PmIleRS1. As to the kind of experiment: biochemical. The settings on record: read-out: koff.
Substrate in data set [6]: CC[C@H](C)[C@H](N)C(=O)O
As to the kind of experiment: purified protein, by the assay type. The settings on record: 30.0 °C.

Substrate in data set [7]: CC[C@H](C)[C@H](N)C(=O)O
As to the kind of experiment: purified protein, by the assay type.

Substrate in data set [8]: Nc1ncnc2c1ncn2[C@@H]1O[C@H](COP(=O)(O)OP(=O)(O)OP(=O)(O)O)[C@@H](O)[C@H]1O
As to the kind of experiment: purified protein, by the assay type.

Substrate in data set [9]: CC(C)[C@H](N)C(=O)O
As to the kind of experiment: purified protein, by the assay type. As to conditions: 30.0 °C.

Substrate in data set [10]: CCC[C@H](N)C(=O)O
As to the kind of experiment: purified protein, by the assay type. As to conditions: 30.0 °C.

Substrate in data set [11]: CC[C@@H](C)[C@@H](N)C(=O)O
As to the kind of experiment: purified protein, by the assay type. As to conditions: 30.0 °C.

Substrate in data set [12]: Nc1ncnc2c1ncn2[C@@H]1O[C@H](COP(=O)(O)OP(=O)(O)OP(=O)(O)O)[C@@H](O)[C@H]1O
As to the kind of experiment: purified protein, by the assay type. The settings on record: 30.0 °C.

Regarding `C/C(=C\C(=O)OCCCCCCCCC(=O)O)C[C@@H]1OC[C@H](C[C@@H]2O[C@H]2[C@@H](C)[C@H](C)O)[C@@H](O)[C@H]1O` [mupirocin], the Ki in data set [1] stood at 0.285 ± 0.146 nM; in data set [2] it was 1080 ± 60 nM; in data set [3] it was 1040 ± 40 nM. For the same molecule, in [4], the kon is 1.51e+06 M⁻¹ s⁻¹. In data set [5], the koff is 0.00043 s⁻¹.

B1: PmIleRS2 (Priestia megaterium NBRC 15308 = ATCC 14581) (protein)
chain: T2 sequence (A0A0B6AVD3 1-1032)
With B1, the Michaelis constant (Km) is 48.6 ± 1.9 µM in data set [6]; 6.2 ± 0.8 µM in data set [7]; 69.3 ± 5.5 µM in data set [7] (30.0 °C); 76.4 ± 1.4 µM in data set [8]; “(3.8 ± 0.2) × 10^3 uM” in data set [8] (30.0 °C); “(5.4 ± 0.4) × 10^3 uM” in data set [9]. Also, the values for the Km entry in data set [10], in [11] and in data set [12] were “(7.97 ± 0.84) × 10^3 uM”, “(2.3 ± 0.1) × 10^3 uM” and “(1.6 ± 0.1) × 10^3 uM”, respectively. Also, the catalytic efficiency (kcat/Km) is 1.4e+06 M⁻¹ s⁻¹ in [6]; 150000 M⁻¹ s⁻¹ in [7]; 940000 M⁻¹ s⁻¹ in data set [7] (30.0 °C); 10000 M⁻¹ s⁻¹ in data set [8]; 20000 M⁻¹ s⁻¹ in data set [8] (30.0 °C); 7000 M⁻¹ s⁻¹ in data set [9]. Further, the results for the kcat/Km in data set [10], in data set [11] and in data set [12] were 4100 M⁻¹ s⁻¹, 670 M⁻¹ s⁻¹ and 40000 M⁻¹ s⁻¹, respectively. The turnover number (kcat) is 0.96 ± 0.03 s⁻¹ in data set [8], 39 ± 1 s⁻¹ in [9], 33 ± 1 s⁻¹ in data set [10] and 1.54 ± 0.03 s⁻¹ in data set [11].

In general, Ki refers to the dissociation constant of the complex between target and ligand, obtained from inhibition or displacement. A lower Ki goes with tighter binding. For orientation: kon means the rate constant with which the complex forms. The koff is a measure of how fast the partners let go of each other. What is called Km is the substrate concentration at which the rate is half of its maximum. Usually kcat/Km stands for the turnover number divided by the Michaelis constant. Usually kcat stands for the number of substrate molecules converted per active site and unit of time at saturation.
